Assay results taken from patent US9951373B2, “Oplophorus-derived luciferases, novel coelenterazine substrates, and methods of use” (Promega Corporation, priority 2010, dated 2018).

Columns and labels:
[1] = Luminescence of 9B8 opt+K33N derived variants in E. coli; format: biochemical; conditions: bacterial lysates
Method: Luminescence generated from the lysates was measured using the novel PBI-3939 and native coelenterazine as substrates. The relative specificity of the variants for PBI-3939 and native coelenterazine was calculated as described previously.
A new OgLuc library was created using 9B8opt+K33N as a starting template. The random library was created using DIVERSIFY® PCR Random Mutagenesis Kit (ClonTech; Catalog #630703). Condition 5 (as listed in the user manual) was used to generate additional variants, and the average mutation rate was calculated to be 2.6 mutations per gene by compiling sequence data from 83 randomly selected clones. This PCR library was cloned into the pF4Ag-based, non-fusion vector background described previously and the sandwich background, i.e., Id-OgLuc-HT7 (described in Example 45). Variants in the pF4Ag-base non-fusion vector background are designated with (NF). Variants in the sandwich vector background are designated with (F). In order to clone the PCR product into both vectors, an amino acid, i.e., a glycine, was appended to the variant sequence in pF4Ag, generating a new position 170 in the OgLuc variant (“170G”). The 170G is present in the sandwich construct, but in this case is considered part of the linker between OgLuc and HT7. For each library, 4,400 E. coli clones were assayed as described previously with the following exceptions. […] The assay buffer contained 100 mM MES pH 6.0 instead of HEPES, and 35 mM thiourea. The assay volumes were as follows: 10 μL cells, 40 μL, lysis buffer, and 50 μL, assay buffer.
E. coli lysates containing the variants were prepared and analyzed as described previously. Luminescence generated from the lysates was measured using the novel PBI-3939 and native coelenterazine as substrates. The luminescence of the variants was normalized to the luminescence generated by 9B8 opt (Table 12). The relative specificity of the variants for PBI-3939 and native coelenterazine was calculated by dividing the luminescence of the variants using PBI-3939 as a substrate with the luminescence of the variants using native coelenterazine as a substrate (Table 12).

NIH3T3 cells = experiment: Luminescence of OgLuc variants expressed in NIH3T3 cells; format: cell-based; conditions: PBI-3939
Method: (§1) The PCR library in the pF4Ag-based non-fusion background was screened for additional variants with increased luminescence compared to 9B8 opt+K33N+170G (SEQ ID NOs: 68 and 69). Selected variants were then assayed in HEK293 and NIH3T3 cells. For each cell type, 15,000 cells were plated and grown overnight at 37° C. The next day, the cells were transfected as described in Example 25 with 10 ng pGL4.13 (Promega Corp.) as a transfection control and 100 ng of the OgLuc test DNA. The media was removed, and the cells were lysed with 100 μL of lysis buffer as described in Example 25 except the lysis buffer contained 100 mM MES pH 6.0 instead of HEPES, and luminescence measured using a GLOMAX® Luminometer.
(§2) Based on the above data, further combination variants were designed and generated (see Table 10) in the context of the pF4Ag-based non-fusion vector background without the 170G. The variants were analyzed in E. coli, HEK293 and NIH3T3 cells as described above and compared to 9B8 opt+K33N. The variants were also examined for luminescence with native coelenterazine.
(§3) The brightness of the variants expressed in HEK293 and NIH3T3 cells was measured as described previously. The luminescence of the variants was normalized to the luminescence generated by 9B8 opt (Table 27).

[2] = Stability of secreted OgLuc variants in saved media; format: physicochemical; conditions: secreted variant in saved media
Method: To determine if the secretion signal sequence of OgLuc facilitates its secretion, the OgLuc variants 9B8, V2 and L27V were cloned into pF4Ag containing an N-terminal OgLuc secretion signal sequence. The variants were also cloned into vectors without the secretion signal sequence. CHO or HeLa cells were then plates at 100,000 cells/well in 1 mL F12 media with 10% FBS and 1× sodium pyruvate (CHO cells) or DMEM with 10% FBS and 1× sodium pyruvate (HeLa cells) into 12-well plates and incubated overnight at 37° C., 5% CO2.
After the overnight incubation, the cells were transfected with 1 μg plasmid DNA containing 9B8, V2, or L27V with or without the secretion signal sequence using the TRANSIT®-LT1 transfection reagent (Mirus Bio) and OPTI-MEMO media (Invitrogen). The cells were again incubated overnight at 37° C., 5% CO2.
After the second overnight incubation, the media was removed and saved for analysis. […] To 10 μL of cell lysate or saved media from each sample, 50 μL assay buffer with 40 μM PBI-3939 was added, and luminescence measured as described above.
To determine the stability of the secreted variants, 150 μL aliquots of the saved media from each sample was placed at 37° C. or 50° C. The aliquots were then removed at different time points (0, 1, 2, 3, 5, 6, and 7 […]), frozen on dry ice, and kept at −20° C. until assayed. To assay for stability, the media aliquots were thawed to room temperature, and 10 μL of each aliquot was mixed with assay buffer with PBI-3939 (pH 6.0) as described above. Luminescence was measured as above, and the half-life (t50) determined (Table 34).

[3] = Enzyme kinetics of OgLuc variants in E. coli lysates; format: biochemical; conditions: PBI-3939, E. coli lysates
Method: Using methods known in the art, enzyme kinetic assays measuring luminescence were performed with the lysates of E. coli containing IV and the IV variants 15C1, 9B8, 9F6, and 9A3. […] Two fold serial dilutions of PBI-3939 in the assay buffer described previously in Example 26 were assayed with the diluted lysates. […] Variants 9B8 and 9F6 had higher Km values compared to IV while Km values for the other variants were unchanged.
Luminescence was measured on a TECAN® INFINITE® F500 luminometer.
The enzyme kinetics values were determined for the OgLuc variants as described previously, except luminescence was measured using a GLOMAX® luminometer. Three replicates were used for each variant.

HEK293 cells [4] = conditions: mole-to-mole basis, HT7 fusions
[5] = Thermal stability of OgLuc variants at 60° C.; format: physicochemical; conditions: 60° C., assay buffer MES pH 6.0
Method: Aliquots were removed at different time-points and placed on dry ice to freeze the samples. […] Luminescence was measured on a GLOMAX® luminometer (Promega Corp.).
The thermal stability of the variants at 60° C. was examined as described above, except the assay buffer contained 100 mM MES pH 6.0 instead of HEPES.

[6] = Stability of variants expressed in HEK293 cells; format: physicochemical; conditions: 20 μM PBI-3939
Method: The variants 9B8 and V2 (9B8+K33N+T39T+K43R+Y68D) were also screened in HEK293 cells to determine their stability. The variants were cloned into pF4Ag and transfected into HEK293 cells (15,000 cells/well) as previously described. After transfection, the cells were lysed in assay reagent (as previously described; no PBI-3939), and luminescence measured using the assay reagent with 20 μM PBI-3939. […] This is consistent with the half-life seen for these variants in E. coli (Table 26).

HEK293 cells [7] = experiment: Luminescence of OgLuc variants expressed in HEK293 cells; format: cell-based, human; conditions: PBI-3939
Method: as §1, §2, §3

[8] = Protein (thermal) stability of OgLuc variants at 50° C.; format: physicochemical; conditions: bacterial lysates, native coelenterazine
Method: Lysates of E. coli containing 15C1, 9B8, 9F6, 8A3 or IV and E. coli expressing hRL (SEQ ID NO: 30 and 31) were prepared from induced cultures as described previously. Lysate samples were diluted 1:1000 with a buffer containing 10 mM HEPES pH 7.5 with 0.1% gelatin. Diluted lysate (100 μL) samples, in replicate 96-well plates, were incubated at 50° C. At different time points, plates were placed at −70° C. (minus seventy degrees Celsius). Prior to measuring the luminescence as described previously, each plate was thawed at room temperature, i.e., 22° C., for 10 min. Samples (10 μL of each thawed sample) were assayed using native coelenterazine as a substrate. Luminescence was measured immediately after addition of assay buffer for each time point plate. The half-life of the protein, which indicated protein stability, was calculated from the luminescence data for each time point using methods known in the art.

B1: 9B8: IV variant with Q18L, F68Y, L72Q, M75K (SEQ ID NO: 19) (protein)
chain: MVFTLEDFVGDWRQTAGYNLDQVLEQGGLSSLFQKLGVSVTPIQKIVLSGENGLKIDIHVIIPYEGLSGYQMGQIEKIFKVVYPVDDHHFKVILHYGTLVIDGVTPNMIDYFGRPYEGIAVFDGKKITVTGTLWNGNKIIDERLINPDGSLLFRVTINGVTGWRLCERILA
Fold over coelenterazine ([1]; luminescence with PBI-3939 divided by luminescence with native coelenterazine): 7
Fold over 9B8 ([1]; luminescence with PBI-3939 normalized to 9B8 opt): 1.0
luminescence normalized to 9B8 opt, NIH3T3 (NIH3T3 cells): 1.0
½ life 37 C. [2]: 8 days
½ life 50 C. [2]: 3 h
Km [3]: 7.7 µM
Vmax [3]: 86,000,000 RLU/0.5 sec
fold brighter than Luc2 (HEK293 cells [4]): approximately 15 fold
fold brighter than hRL (HEK293 cells [4]): > 100 fold
1/2 life hours [5]: 5.1 h
half-life [6]: 5.2 h
luminescence normalized to 9B8 opt, HEK293 (HEK293 cells [7]): 1.0
½ life (hrs) [8]: 5.8 h
½ life (min) [8]: 346.6 min
